Data reported in US9844546B2, “Antibody against human HIF hydroxylase” (OXFORD UNIVERSITY INNOVATION LIMITED, priority 2001, dated 2017).
Where no end group is shown, it is not given here. [ ]: non-standard residue; d: D form. The star is where a group is joined. Biotin = O=C1N[C@H]2[C@H](CS[C@H]2CCCCC(=O)*)N1; Hyp = O=C(O)[C@@H]1C[C@@H](O)CN1

Legend:
VHL-1 = target: T1, VHL-1 (Caenorhabditis elegans, UniProt Q19213); assay: Peptide blocking of HIF-1 capture by HA.VHL-1 and capture of native VHL-1 by biotinylated peptides; format: binding, C. elegans; details: for blocking of capture of pretreated HIF-1 by HA.VHL-1: peptide 1 μM
T1 construct: made in house; host or cells: TNT rabbit reticulocyte lysate, IVTT
T1 sequence (Q19213 1-174): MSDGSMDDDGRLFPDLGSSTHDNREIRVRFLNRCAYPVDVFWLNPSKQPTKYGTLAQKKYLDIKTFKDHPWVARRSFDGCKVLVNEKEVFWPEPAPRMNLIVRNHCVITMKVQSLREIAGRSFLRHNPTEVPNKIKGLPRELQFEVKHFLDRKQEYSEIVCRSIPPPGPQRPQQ
Method: For peptide blocking experiments peptides (final conc. 1 μM) were pre-incubated with VHL-1 for 15 min before addition to the interaction.
To test whether hydroxylation of the critical P621 residue in C. elegans HIF-1 could indeed promote binding to VHl-1, we synthesised N-terminal biotinylated peptides corresponding to residues 607-634 of C. elegans HIF-1 that contained either a proline (B28Pro) or a (2S, 4R)-trans-hydroxyproline residue (B28Hyp) at position 621.
Furthermore. […] Finally, to test the importance of prolyl hydroxylation in regulating C. elegans HIF-1 in vivo we exposed worms to the cell-penetrating prolyl hydroxylase inhibitor, dimethyloxalylglycine.

HIF-1α/pVHL interaction = target: T2, HIF-1α/pVHL interaction (Homo sapiens, UniProt P40337); assay: Polypeptide blocking assay of HIF-1α and pVHL.HA IVTT mixture, anti-HA immunoprecipitation; format: binding; details: cell extract supplemented with Fe(II)
T2 construct: made in house; host or cells: TNT rabbit reticulocyte lysate (Promega), in vitro transcription/translation
Method: Further studies were performed using synthetic polypeptides as inhibitors of the HIF-1α/pVHL interaction (23). […] Results for a series of polypeptides derived from this domain are summarized in FIG. 1B and implicate a similar minimal interaction domain. […] This polypeptide comprises HIF-1α polypeptide residues 556 to 574 and its ability to block binding following exposure to a variety of direct oxidation conditions was assessed.
We synthesized a polypeptide (HIF-1α residues 556-574), containing a trans-4-hydroxy-S-proline residue at position 564 (19:Pro564Hyp), since the trans-4-hydroxylation is the commonest enzymatic proline oxidation (25). A polypeptide blocking assay was carried out using the 19:Pro564Hyp modified polypeptide and, as a control, the unmodified polypeptide without the trans-4-hydroxylation (19:WT). The 19:WT polypeptide was either incubated with cell extract before the binding assay or was untreated. The 19:Pro564Hyp polypeptide was added to a mixture of HIF-1α and pVHL-HA IVTTs at a concentration of 1, 0.25, 0.05 or 0.01 μM and the cell extract treated or untreated 19:WT polypeptide at a concentration of 0.5 μM. Interaction of HIF-1α with pVHL was then assayed by anti-HA immunoprecipitation. […] A pVHL capture assay was then carried out using biotinylated synthetic polypeptides. The same polypeptides, 19:Pro564Hyp and 19:WT were assessed for the ability to capture wild type or mutant (Pro86His) pVHL. […] In both cases capture was specific for wild type, as opposed to mutant, pVHL.
• 1. G. L. Semenza, Genes Dev 14, 1983-91. (2000). • 2. N. V. Iyer, et al., Genes Dev. 12, 149-162 (1997). • 3. E. Maltepe, J. V. Schmidt, D. Baunoch, C. A. Bradfield, M. C. Simon, Nature 386, 403-407 (1997). • 4. G. L. Wang, B.-H. Jiang, E. A. Rue, G. L. Semenza, Proc. Natl. Acad. Sci. USA 92, 5510-5514 (1995). • 5. S. Salceda, J. Caro, J. Biol. Chem. 272, 22642-22647 (1997). • 6. L. E. Huang, J. Gu, M. Schau, H. F. Bunn, Proc. Natl. Acad. Sci. USA 95, 7987-7992 (1998). • 7. M. S. Wiesener, et al., Blood 92, 2260-2268 (1998). • 8. P. H. Maxwell, et al., Nature 399, 271-275 (1999). • 9. K. Iwai, et al., Proc. Natl. Acad. Sci. USA 96, 12436-12441 (1999). • 10. J. Lisztwan, G. Imbert, C. Wirbelauer, M. Gstaiger, W. Krek, Genes Dev 13, 1822-33 (1999). • 11. M. E. Cockman, et al., J Biol Chem (2000). • 12. M. Ohh, et al., Nat Cell Biol 2, 423-7. (2000). • 13. T. Kamura, et al., Proc Natl Acad Sci USA 97, 10430-5. (2000). • 14. K. Tanimoto, Y. Makino, T. Pereira, L. Poellinger, Embo J 19, 4298-309. (2000). • 15. M. A. Goldberg, S. P. Dunning, H. F. Bunn, Science 242, 1412-1415 (1988). • 16. G. L. Wang, G. L. Semenza, Blood 82, 3610-3615 (1993). • 17. G. L. Semenza, Cell 98, 281-284 (1999). • 18. Hypoxia (<0.1% oxygen) was obtained in a workstation with O2, CO2 and temperature control (Ruskinn Technologies, Leeds, UK). For hypoxic harvest, buffers were preincubated in the chamber overnight. RCC4-VHL.HA, labelling conditions and co-immunoprecipitation assays have been described previously (11); in the current study 12.5 μM MG132 was used for proteasomal inhibition. For standard harvest, the cells were removed from the chamber after hypoxic exposure, prior to cell lysis. Co-immunoprecipitation assays on all lysates were performed at 4° C. under ambient oxygen conditions. […] When programming in hypoxia, reaction mix was preincubated in the workstation for 10 minutes before addition of the DNA template. […]

[1] = system: cytoplasmic extract-dependent modification of the 5′ VHL E3 target site; assay: Peptide competition of cytoplasmic extract-dependent modification of GAL-HIF-1α 344-553, in vitro VHL E3 ubiquitylation; format: biochemical, human; details: 12.5 μM peptide, RCC4 cytoplasmic extract
Method: The E1 activating enzyme used in ubiquitylation assays was either obtained from Affiniti Research (Exeter, UK) or purified from BL21 (DE3) E. coli transfected with plasmid expressing His6-tagged mouse E1. His6-E1 was purified by Ni^2+-agarose affinity chromatography. After dialysis against phosphate buffered saline, glycerol was added to 10% (vol/vol) and 25 ng/μl aliquots stored at −80° C. Human CDC34 recombinant E2 enzyme was from Affiniti Research (Exeter, UK). VHL E3 was obtained by anti-HA immunoprecipitation from stably transfected 7860-VHLHA cell lysates (Iliopoulos et al). GAL-HIF-1α substrate was prepared by anti-GAL immunoprecipitation from [^35S] methionine-labeled TnT rabbit reticulocyte (Promega) translates. Each 40 μl ubiquitylation reaction consisted of 4 μl of 5 mg/ml ubiquitin, 4 μl of 10×ATP regenerating system (20 mM Tris pH7.5, 10 mM ATP, 10 mM magnesium acetate, 300 mM creatine phosphate, 0.5 mg/ml creatine phosphokinase), 2 μl, E1, 3 μl E2, 6 μl VHL E3 immunopurified on protein G sepharose, 6 μl GAL-HIF-1α substrate immunopurified on agarose beads. Reactions were incubated at 30° C. for 2 h with occasional mixing, stopped by the addition of SDS sample buffer and analysed by SDS-PAGE and autoradiography. Cytoplasmic extract-based ubiquitylation assays have been previously described (Cockman).
It has been shown above that the 3′ VHL E3 target site responds to oxygen level via hydroxylation at proline residue 564. This praline residue forms part of a potential motif conserved between the 5′ and 3′ target sites. Mutation of the corresponding proline residue (P402A) in the 5′ target site also results in functional inactivation. It was possible therefore that proline residue 402 was also a target for regulatory hydroxylation, To test this we asked whether polypeptides corresponding to the 3′ VHL E3 target site could interfere with the cytoplasmic extract-dependent modification of the 5′ VHL E3 target site. […]

T2 sequence (P40337 whole entry): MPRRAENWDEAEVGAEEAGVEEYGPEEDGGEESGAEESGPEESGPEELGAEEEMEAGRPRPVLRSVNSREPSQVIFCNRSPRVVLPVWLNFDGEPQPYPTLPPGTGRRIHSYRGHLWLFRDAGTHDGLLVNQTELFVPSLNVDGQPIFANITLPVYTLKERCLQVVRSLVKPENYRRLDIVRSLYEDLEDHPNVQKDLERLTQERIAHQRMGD

| blocking of HIF-1α/pVHL interaction by polypeptide after exposure to cell extract (HIF-1α/pVHL interaction) | Substance | blocking of capture of pretreated HIF-1 by HA.VHL-1 (VHL-1) | capture of native VHL-1 from worm extracts (VHL-1; wild type but not vhl-1 mutant worms) | competition of cytoplasmic extract effect on VHL-dependent ubiquitylation of GAL 344-553 [1] |
| --- | --- | --- | --- | --- |
|  | B28Hyp: N-terminal biotinylated peptide, residues 607-634 of C. elegans HIF-1, (2S, 4R)-trans-hydroxyproline at position 621 (Biotin-DDLQWEEPDLSCLA[Hyp]FVDTYDMMQMDEG) | blocked capture | captured immunodetectable native VHL-1 |  |
|  | B28Pro: N-terminal biotinylated peptide, residues 607-634 of C. elegans HIF-1, proline at position 621 (Biotin-DDLQWEEPDLSCLAPFVDTYDMMQMDEG) | not |  |  |
| did not block | Pro564Gly: HIF-1α 556-574 polypeptide where the critical proline is mutated to glycine (DLDLEMLAGYIPMDDDFQL; UniProt Q16665 556-574, looked up, fragment P564G) |  |  | no effect |
